The results in this text go back to US11628159B2, “Cell-protective compounds and their use” (ETH ZURICH, priority 2017, dated 2023).

This test concerns the target T1, GRK2 (Mus musculus, UniProt Q99MK8).
T1 construct: from tissue; host or cells: heart lysate of Tg-RKIP mice
T1 sequence (Q99MK8 1-689): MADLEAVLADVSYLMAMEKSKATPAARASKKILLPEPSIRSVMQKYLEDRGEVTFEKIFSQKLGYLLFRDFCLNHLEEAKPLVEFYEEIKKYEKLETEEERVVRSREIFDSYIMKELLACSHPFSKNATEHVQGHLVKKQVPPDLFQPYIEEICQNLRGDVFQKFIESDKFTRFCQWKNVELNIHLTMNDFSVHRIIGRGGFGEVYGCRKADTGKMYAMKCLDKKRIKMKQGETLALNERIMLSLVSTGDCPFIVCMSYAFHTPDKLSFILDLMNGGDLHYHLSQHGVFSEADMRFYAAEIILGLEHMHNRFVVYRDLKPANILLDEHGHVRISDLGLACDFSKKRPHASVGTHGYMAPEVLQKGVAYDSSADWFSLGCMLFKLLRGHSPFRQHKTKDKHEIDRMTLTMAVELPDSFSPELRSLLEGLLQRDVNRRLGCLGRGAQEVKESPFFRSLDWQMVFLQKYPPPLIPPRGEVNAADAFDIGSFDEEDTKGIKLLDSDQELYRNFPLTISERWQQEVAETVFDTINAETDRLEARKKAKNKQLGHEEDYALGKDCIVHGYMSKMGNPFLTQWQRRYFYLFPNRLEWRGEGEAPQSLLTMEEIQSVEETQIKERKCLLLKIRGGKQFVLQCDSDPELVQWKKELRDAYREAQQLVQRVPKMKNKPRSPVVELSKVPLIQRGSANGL
The test can be described thus: Depletion of GRK2 from Tg-RKIP heart lysates by affinity purification of RKIP. To be noted: serine-153 phosphorylated transgenic RKIP, n=4. Type of test: binding. An excerpt:
A, Immunoblot detection of serine-153 phosphorylation of RKIP (pS153) in Tg-RKIP and B6 control hearts (n=5 mice/group). B, Removal of RKIP by affinity purification (AP) with immobilized RKIP-specific antibodies depletes the GRK2 protein from Tg-RKIP heart lysates. A control affinity purification with unrelated antibodies did neither deplete RKIP nor GRK2. Upper panels show representative experiments and lower panels show quantitative data evaluation (±s.d., n=4; *, p=0.0286; Mann Whitney Test). C, Isoproterenol-stimulated cAMP response in neonatal cardiomyocytes from Tg-RKIP and Tg-GRK2-K220R mice (n=6; ±s.d.).
The GRK2-inhibitory activity of transgenic RKIP (human RKIP˜PEBP1) was controlled in vivo. The phosphorylation of RKIP on serine-153 switches RKIP from Raf1 inhibition to GRK2 inhibition (Lorenz K, et al., Nature 426, 574-579 (2003)). Substantial serine-153 phosphorylation of RKIP was documented by immunoblot detection in Tg-RKIP hearts (FIG. 7A). […] We determined the GRK2 inhibition-mediated resensitization of the isoproterenol-stimulated cAMP response in neonatal cardiomyocytes as readout for GRK2 inhibition by RKIP and GRK2-K220R, respectively (Abd Alla, J, et al., J. Biol. Chem. 291, 2583-2600 (2016); Kong K C, et al., Biochemistry 47, 9279-9288 (2008)).

B1: RKIP: raf kinase inhibitor protein, a dual-specific GRK2 and Raf kinase inhibitor (protein, UniProt P30086 2-187, looked up)
Phosphatidylethanolamine-bindi …: PVDLSKWSGPLSLQEVDEQPQHPLHVTYAGAAVDELGKVLTPTQVKNRPTSISWDGLDSGKLYTLVLTDPDAPSRKDPKYREWHHFLVVNMKGNDISSGTVLSDYVGSGPPKGTGLHRYVWLVYEQDRPLKCDEPILSNRSGDHRGKFKVASFRKKYELRAPVAGTCYQAEWDDYVPKLYEQLSGK
B1: the “GRK2 protein bound and neutralized in Tg-RKIP hearts” value is given as 90.4%.
